The supplement of paper PMC9170038

Tested on: MS2 coat protein
Test: apparent KD of MS2 coat protein; designed switch direction (-1 OFF switch, 1 ON switch): 1; higher = weaker reporter binding
Procedure, shortened: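 The apparent KD reported per design is the median over clusters of curve fits to normalised cluster fluorescence. The RNA switches were transcribed on Illumina chips by stalled E. coli RNA polymerase. SNAP-549-labelled MS2 coat protein was titrated from 0.7 or 1.5 nM, doubling up to 3 µM, in Tris-HCl pH 7.5 buffer containing KCl, MgCl2, BSA, DTT, tRNA and Tween-20, with no input, 200 uM small-molecule ligand, or an oligonucleotide input.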

[1] = input ligand: microRNA oligo, concentration not stated
[2] = Eterna round: R95, input ligand: FMN 200 uM
[3] = Eterna round: R95, input ligand: microRNA oligo, concentration not stated
[4] = Eterna round: R95, input ligand: none

“ACAUGAGGAUCACCCAUGUAUAGAAUUGAAUGUUAAGAUACGUAGGAUAUCGAGUUUAGUAUGAUCGAGAAGGACGAUCUGAUA [JR_SSNG3_Sub065] (Eterna round: R96, puzzle: Same State NG 3)” was tested, and the “apparent KD of MS2 coat protein” value [1] was 0.0145 µM.
In the case of “ACCAAUCCAAUAAAACAAGCGUGCUCGUCACAUGAGGAUCACCCAUGUUCAAGCGCUGUUCCUAAUUCCUCAGCGCC [Ortiat] (puzzle: Sensor for hsa-mir-208a)”, the “apparent KD of MS2 coat protein” value [2] was 0.0723 µM, the “apparent KD of MS2 coat protein” value [3] was 0.0223 µM and the “apparent KD of MS2 coat protein” value [4] was 0.0677 µM.
In the case of “ACGCAGCUGGGCAAGGAUAUCGGUGGUAAAACAUGAGGAUCACCCAUGUCCGAAGCUCGGACUUCCGAGAAGGUGCCCGGCUGCG [Soinraesar Omei Mod 8] (puzzle: Same State 2)”, the “apparent KD of MS2 coat protein” value [2] was 0.0201 µM, the “apparent KD of MS2 coat protein” value [3] was 0.119 µM and the “apparent KD of MS2 coat protein” value [4] was 0.238 µM.
“ACUAGAUCGAAAGAUCUAGAAAACGAGUAACAUGAGGAUCACCCAUGUUCAUGUUGCUCGUCUUAAGCCGAAAGGCG [JL ALT 15] (Eterna round: R96, puzzle: Sensor for hsa-mir-208a)” was tested, and the “apparent KD of MS2 coat protein” value (input ligand: FMN 200 uM) was 0.0715 µM, the “apparent KD of MS2 coat protein” value [1] was 0.038 µM and the “apparent KD of MS2 coat protein” value (input ligand: none) was 0.0228 µM.
In the case of “ACUCAGUACAAUUUAGAUCUACAUGAGGAUCACCCAUGUACUGAGGAUAUCAGCUCGAAUAGAGCUGAGAAGGCAGUUGUACUA [SSNG3/10-A1] (Eterna round: R96, puzzle: Same State NG 3)”, the “apparent KD of MS2 coat protein” value (input ligand: FMN 200 uM) was 0.102 µM, the “apparent KD of MS2 coat protein” value [1] was 0.138 µM and the “apparent KD of MS2 coat protein” value (input ligand: none) was 0.248 µM.
“ACUCUACAUGAGGAUCACCCAUGUUGAGCCCAUCAAGGAUAUGGGUCUUAAUCGCGGGUGCCAGAAGGUGAUGGUU [Xesove] (Eterna round: R96, puzzle: Same State 1)” was tested, and the “apparent KD of MS2 coat protein” value (input ligand: FMN 200 uM) was 0.313 µM, the “apparent KD of MS2 coat protein” value [1] was 0.0468 µM and the “apparent KD of MS2 coat protein” value (input ligand: none) was 0.0943 µM.
“ACUUAGUACAAUUUAGAUCUACAUGAGGAUCACCCAUGUACUGAGGAUAUCAGCUCGAAUAGAGCUGAGAAGGCAGUAGUACUA [SSNG3/9-A1] (Eterna round: R96, puzzle: Same State NG 3)” was tested, and the “apparent KD of MS2 coat protein” value (input ligand: FMN 200 uM) was 0.0474 µM, the “apparent KD of MS2 coat protein” value [1] was 0.0426 µM and the “apparent KD of MS2 coat protein” value (input ligand: none) was 0.0502 µM.
For “ACUUAGUACAAUUUAGAUCUACAUGAGGAUCACCCAUGUACUGAGGAUAUCAGCUCGUUUAGAGCUGAGAAGGCAGAAGUACUU [SSNG3/8-A3] (Eterna round: R96, puzzle: Same State NG 3)”, the “apparent KD of MS2 coat protein” value (input ligand: FMN 200 uM) was 0.0547 µM, the “apparent KD of MS2 coat protein” value [1] was 0.234 µM and the “apparent KD of MS2 coat protein” value (input ligand: none) was 0.207 µM.
“ACUUGCGGCACAGGAUAUGGGUGCCUGUACAUGAGGAUCACCCAUGUUAAGGGACGGAUUACGAACCAGAAGGGUGAGGCGGGC [Aqube] (Eterna round: R96, puzzle: Same State NG 2)” was tested, and the “apparent KD of MS2 coat protein” value (input ligand: FMN 200 uM) was 1.35 µM, the “apparent KD of MS2 coat protein” value [1] was 0.296 µM and the “apparent KD of MS2 coat protein” value (input ligand: none) was 0.3 µM.
For “ACUUGCUUUUUGCUCAUUUUAUGUCCGAAACAUGAGGAUCACCCAUGUGUAGAUUAUGUGUUGUUUUUGAUACGUGA [JR_SHM208A_Sub067] (puzzle: Sensor for hsa-mir-208a)”, the “apparent KD of MS2 coat protein” value [2] was 0.0246 µM, the “apparent KD of MS2 coat protein” value [3] was 0.0207 µM and the “apparent KD of MS2 coat protein” value [4] was 0.0263 µM.
For “AGAGGAGGCGCAGGAUAUACGACGGAGGACGUGGUAGAAGGGUGCAUGCGAUGACAUGAGGAUCACCCAUGUACCGCGCGACGA [AK SSNG1-V2-16] (Eterna round: R96, puzzle: Same State NG 1)”, the “apparent KD of MS2 coat protein” value (input ligand: FMN 200 uM) was 0.337 µM, the “apparent KD of MS2 coat protein” value [1] was 0.0142 µM and the “apparent KD of MS2 coat protein” value (input ligand: none) was 0.0789 µM.
With “AGAUCAUGACGAGGAUAUGGAACAUGAGGAUCACCCAUGUAUGUUCCAUAACGCGAACGACGAAUCCAGAAGGCGUCGUGAUCA [Mat - Same State NG 2 - JL mod - D42] (Eterna round: R96, puzzle: Same State NG 2)” the “apparent KD of MS2 coat protein” value (input ligand: FMN 200 uM) was 0.00524 µM, the “apparent KD of MS2 coat protein” value [1] was 0.0216 µM and the “apparent KD of MS2 coat protein” value (input ligand: none) was 0.0263 µM.
“AGAUCAUGACGAGGAUAUGGUACAUGAGGAUCACCCAUGUAUGUAUCAUAACGCGAAUGACGAAACCAGAAGGCGUCGUGAUCA [Mat - Same State NG 2 - JL mod - D43] (Eterna round: R96, puzzle: Same State NG 2)” was tested, and the “apparent KD of MS2 coat protein” value (input ligand: FMN 200 uM) was 0.00874 µM, the “apparent KD of MS2 coat protein” value [1] was 0.0119 µM and the “apparent KD of MS2 coat protein” value (input ligand: none) was 0.0158 µM.
With “AGAUGUUAAUCAGGAUAUGGGCACAUGAGGAUCACCCAUGUAUUUUCGAUGCUAUGUGGAGACGUCUAGAAGGGAUGGCUAACA [SameState NG2 #86] (Eterna round: R96, puzzle: Same State NG 2)” the “apparent KD of MS2 coat protein” value (input ligand: FMN 200 uM) was 0.165 µM, the “apparent KD of MS2 coat protein” value [1] was 0.126 µM and the “apparent KD of MS2 coat protein” value (input ligand: none) was 0.185 µM.
“AGAUGUUAAUCAGGAUAUGGGCCCGUGAGGAUCACCCACGGAAAGUAGGUCCAACAGGGCCCAGUCUAGAAGGGAUGGCUAACA [malcolm 80 ssNG2 F5+F7.2] (Eterna round: R96, puzzle: Same State NG 2)” was tested, and the “apparent KD of MS2 coat protein” value (input ligand: FMN 200 uM) was 0.112 µM, the “apparent KD of MS2 coat protein” value [1] was 0.0198 µM and the “apparent KD of MS2 coat protein” value (input ligand: none) was 0.084 µM.
With “AGCCGAAGCGCAGGAUAUACAUGCACACAUGAGGAUCACCCAUGUGGCAACACGUGGUAGUGAUUGUAGAAGGGUGCUCGGCGC [Omei SS(NG)2 Cv16] (Eterna round: R96, puzzle: Same State NG 2)” the “apparent KD of MS2 coat protein” value (input ligand: FMN 200 uM) was 0.0601 µM, the “apparent KD of MS2 coat protein” value [1] was 0.0344 µM and the “apparent KD of MS2 coat protein” value (input ligand: none) was 0.051 µM.
In the case of “AGCCUGAGUCGAGGAUAUUAUGGAUCAAUUAAUACAUGAGGAUCACCCAUGUAAUUAAUUUAACAUGAGAAGGCGACUCAGGCA [SSNG2/10-A1] (Eterna round: R96, puzzle: Same State NG 2)”, the “apparent KD of MS2 coat protein” value (input ligand: FMN 200 uM) was 0.00772 µM, the “apparent KD of MS2 coat protein” value [1] was 0.00543 µM and the “apparent KD of MS2 coat protein” value (input ligand: none) was 0.00866 µM.
For “AGCGAGAUAGGCAAGGAUAUGCUGGGUUUCACAUGAGGAUCACCCAUGUCAUAGGUAAUGUCCGAGCAGAAGGUGCAUUCUCUUU [ak bound state multiloop solution] (puzzle: Same State 2)”, the “apparent KD of MS2 coat protein” value [3] was 0.172 µM.
With “AGCUAUCGAAAACGAUAGCAAAGGCAUGUACAUGAGGAUCACCCAUGUCAUGUACAAGCUUUUUGCUCGUCUUAAAA [Zipper 23 - 3] (Eterna round: R96, puzzle: Sensor for hsa-mir-208a)” the “apparent KD of MS2 coat protein” value (input ligand: FMN 200 uM) was 0.66 µM, the “apparent KD of MS2 coat protein” value [1] was 0.0141 µM and the “apparent KD of MS2 coat protein” value (input ligand: none) was 0.44 µM.
“AGCUAUCGAAAACGAUAGCAAAGGCAUGUACAUGAGGAUCACCCAUGUCAUGUACAAGCUUUUUGCUCGUCUUAAAA [Zipper 23 - 3] (puzzle: Sensor for hsa-mir-208a)” was tested, and the “apparent KD of MS2 coat protein” value [2] was 0.799 µM, the “apparent KD of MS2 coat protein” value [3] was 0.0159 µM and the “apparent KD of MS2 coat protein” value [4] was 0.983 µM.
In the case of “AGCUAUUACGAAGGAUAUUGUGACAUGAGGAUCACCCAUGUUUUCAUGAUUUAUUGUGAUCACGUCGAGAAGGUUGUACUAACA [SameState NG2 #29] (Eterna round: R96, puzzle: Same State NG 2)”, the “apparent KD of MS2 coat protein” value (input ligand: FMN 200 uM) was 0.0592 µM, the “apparent KD of MS2 coat protein” value [1] was 0.0508 µM and the “apparent KD of MS2 coat protein” value (input ligand: none) was 0.0518 µM.
“AGGAAGGAGACUGAGGAUAUCGUAAGGAGGACAUGAGGAUCACCCAUGUGUAUAGGAUUGGAGGACGAGAAGGCAGAGGAGUGGG [JR_SS2_Sub048] (puzzle: Same State 2)” was tested, and the “apparent KD of MS2 coat protein” value [2] was 0.0297 µM, the “apparent KD of MS2 coat protein” value [3] was 0.0197 µM and the “apparent KD of MS2 coat protein” value [4] was 0.0265 µM.
For “AGGCAAGCUUUUUGCUGGUAUGGAGGAUAACAUGAGGAUCACCCAUGUAUUGGAGGUGUUGAAGAUUUGAGAAAGAA [JR_SHM208A_Sub005] (puzzle: Sensor for hsa-mir-208a)”, the “apparent KD of MS2 coat protein” value [2] was 0.118 µM, the “apparent KD of MS2 coat protein” value [3] was 0.149 µM and the “apparent KD of MS2 coat protein” value [4] was 0.139 µM.
With “AGGCUCAGACUAGGAUAUAUGUGGUCACAUGAGGAUCACCCAUGUCUCGAGCUUCGGCUCGAGGCAUAGAAGGAGUCUGAGCCA [SSNG2/5-D1] (Eterna round: R96, puzzle: Same State NG 2)” the “apparent KD of MS2 coat protein” value (input ligand: FMN 200 uM) was 0.459 µM, the “apparent KD of MS2 coat protein” value [1] was 0.014 µM and the “apparent KD of MS2 coat protein” value (input ligand: none) was 0.713 µM.
For “AGGCUGAGUCGAGGAUAUGAUCUUCAUAUAAUAACAUGAGGAUCACCCAUGUAUAAUUACAUGGAUCAGAAGGCGACUCAGCCA [SSNG2/13-B1] (Eterna round: R96, puzzle: Same State NG 2)”, the “apparent KD of MS2 coat protein” value (input ligand: FMN 200 uM) was 0.0354 µM, the “apparent KD of MS2 coat protein” value [1] was 0.414 µM and the “apparent KD of MS2 coat protein” value (input ligand: none) was 0.584 µM.
With “AGGCUGAGUCGAGGAUAUUAUGGAUCCUCUAAUACAUGAGGAUCACCCAUGUAAUUAAUUAUACAUGAGAAGGUGACUCAGCCA [SSNG2/12-B3] (Eterna round: R96, puzzle: Same State NG 2)” the “apparent KD of MS2 coat protein” value (input ligand: FMN 200 uM) was 0.612 µM, the “apparent KD of MS2 coat protein” value [1] was 0.129 µM and the “apparent KD of MS2 coat protein” value (input ligand: none) was 0.28 µM.
“AGGGAGGAUGCAGGAUAUAUAAGACAUGAGGAUCACCCAUGUACCUCGUGGAGAAGAAAGGAGAGAUAGAAGGGUAGUGAGGAA [Default title] (Eterna round: R96, puzzle: Same State NG 2)” was tested, and the “apparent KD of MS2 coat protein” value (input ligand: FMN 200 uM) was 0.285 µM, the “apparent KD of MS2 coat protein” value [1] was 0.2 µM and the “apparent KD of MS2 coat protein” value (input ligand: none) was 0.258 µM.
In the case of “AGGGCCGCGGCACAGGAUAUGCACAGGUUCACAUGAGGAUCACCCAUGUGCUCUAGAUAGCUUGAGCAGAAGGGUGUCAUGGUAA [Beadi] (puzzle: Same State 2)”, the “apparent KD of MS2 coat protein” value [2] was 0.0163 µM, the “apparent KD of MS2 coat protein” value [3] was 0.0182 µM and the “apparent KD of MS2 coat protein” value [4] was 0.0279 µM.
